Source: publication PMC4498498

Assays:
Assay in all cases: purified protein
Settings in all cases: 0.2 mM NADPH, 50 mM Tris-HCl pH 7.5, 1 mM DTT, 25°C
CC(=O)C(C)O = test system: CC(=O)C(C)O
purified protein [1] = substrate: CC(=O)C(C)O; remark: listed apart in the source
purified protein [2] = substrate: CC(C)=O
purified protein [3] = substrate: CCC(C)=O

| Molecule | Km (CC(=O)C(C)O) [mM] | kcat (CC(=O)C(C)O) [s⁻¹] | kcat/Km (CC(=O)C(C)O) [M⁻¹ s⁻¹] | Km (purified protein [1]) [mM] | kcat (purified protein [1]) [s⁻¹] | kcat/Km (purified protein [1]) [M⁻¹ s⁻¹] | Km (purified protein [2]) [mM] | kcat (purified protein [2]) [s⁻¹] | kcat/Km (purified protein [2]) [M⁻¹ s⁻¹] | Km (purified protein [3]) [mM] | kcat (purified protein [3]) [s⁻¹] | kcat/Km (purified protein [3]) [M⁻¹ s⁻¹] |
| --- | --- | --- | --- | --- | --- | --- | --- | --- | --- | --- | --- | --- |
| CaADH (Clostridium autoethanogenum DSM 10061; S199R) | 34 ± 5 | 95 ± 4 | 2800 |  |  |  |  |  |  |  |  |  |
| CaADH (Clostridium autoethanogenum DSM 10061) (protein) KGFAMLGINKLGWIEKKNPVPGPYDAIVHPLAVSPCTSDIHTVFEGALGNRENMILGHEAVGEIAEVGSEVKDFKVGDRVIVPCTTPDWRSLEVQAGFQQHSNGMLAGWKFSNFKDGVFADYFHVNDADMNLAILPDEIPLESAVMMTDMMTTGFHGAELADIKMGSSVVVIGIGAVGLMGIAGSKLRGAGRIIGVGSRPVCVETAKFYGATDIVNYKNGDIVEQIMDLTHGKGVDRVIMAGGGAETLAQAVTMVKPGGVISNINYHGSGDTLPIPRVQWGCGMAHKTIRGGLCPGGRLRMEMLRDLVLYKRVDLSKLVTHVFDGAENIEKALLLMKNKPKDLIKSVVTF |  |  |  | 98 ± 10 | 150 ± 8 | 1600 | 1.0 ± 0.1 | 55 | 55000 | 1.8 ± 0.2 | 37 | 21000 |
